Columns and labels:
Assay in all cases: flow cytometry on HEK293-T, alanine scan
human CD33 F118A = human CD33 F118A (human, UniProt P20138 18-364)
Protocol: (§1) An alanine scan on human CD33 was performed to the determine the residues on CD33 that are involved in binding to the antibodies investigated. […] Briefly, a mutation library of CD33 was created by high-throughput, site-directed mutagenesis. Each residue was individually mutated to alanine, with alanine codons mutated to serine. The mutant library was arrayed in 384-well microplates and transiently transfected into HEK293-T. Following transfection, cells were incubated with the indicated antibodies (IgG or Fab) at concentrations pre-determined using an independent immunofluorescence titration curve on wild type CD33. […] Binding of each antibody to each mutant clone was determined in duplicates. For each point, background fluorescence was subtracted from the raw data, which were then normalized to antibody reactivity with wild type CD33.
(§2) Critical residues for antibody binding (outlined in dark grey) were residues whose mutations led to a binding of the test Abs of less than 20%. Additional secondary residues (outlined in light grey) were identified that led to a binding of the test Abs of between 20 and 40% as compared to the wild type CD33.

human CD33 R111A = human CD33 R111A (human, UniProt P20138 18-364)
Protocol: as §1, §2

human CD33 P132A = human CD33 P132A (human, UniProt P20138 18-364)
Protocol: as §1, §2

human CD33 F117A = human CD33 F117A (human, UniProt P20138 18-364)
Protocol: as §1, §2

human CD33 N113A = human CD33 N113A (human, UniProt P20138 18-364)
Protocol: as §1, §2

human CD33 T125A = human CD33 T125A (human, UniProt P20138 18-364)
Protocol: as §1, §2

human CD33 L161A = human CD33 L161A (human, UniProt P20138 18-364)
Sequence of human CD33 L161A (P20138 18-364 L161A limits assumed): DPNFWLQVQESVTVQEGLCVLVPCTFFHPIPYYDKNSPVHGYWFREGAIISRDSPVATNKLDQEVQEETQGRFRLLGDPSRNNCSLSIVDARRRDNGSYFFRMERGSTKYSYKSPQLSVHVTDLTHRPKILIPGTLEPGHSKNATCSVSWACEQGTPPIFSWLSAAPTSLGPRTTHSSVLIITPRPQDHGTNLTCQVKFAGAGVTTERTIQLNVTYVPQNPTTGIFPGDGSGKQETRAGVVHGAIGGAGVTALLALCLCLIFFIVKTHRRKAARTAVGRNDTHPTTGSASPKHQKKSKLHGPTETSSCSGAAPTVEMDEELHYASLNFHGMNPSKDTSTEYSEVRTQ
Protocol: as §1, §2

human CD33 H157A = human CD33 H157A (human, UniProt P20138 18-364)
Protocol: as §1, §2

human CD33 Q133A = human CD33 Q133A (human, UniProt P20138 18-364)
Protocol: as §1, §2

human CD33 V138A = human CD33 V138A (human, UniProt P20138 18-364)
Protocol: as §1, §2

human CD33 L93A = human CD33 L93A (human, UniProt P20138 18-364)
Protocol: as §1, §2

human CD33 D95A = human CD33 D95A (human, UniProt P20138 18-364)
Protocol: as §1, §2

human CD33 K146A = human CD33 K146A (human, UniProt P20138 18-364)
Protocol: as §1, §2

human CD33 S115A = human CD33 S115A (human, UniProt P20138 18-364)
Protocol: as §1, §2

human CD33 R110A = human CD33 R110A (human, UniProt P20138 18-364)
Sequence of human CD33 R110A (P20138 18-364 R110A limits assumed): as the sequence (P20138 18-364 L161A limits assumed) above, with R93A, A144L counted along it
Protocol: as §1, §2

human CD33 D112A = human CD33 D112A (human, UniProt P20138 18-364)
Protocol: as §1, §2

human CD33 T142A = human CD33 T142A (human, UniProt P20138 18-364)
Protocol: as §1, §2

human CD33 I105A = human CD33 I105A (human, UniProt P20138 18-364)
Protocol: as §1, §2

human CD33 H143A = human CD33 H143A (human, UniProt P20138 18-364)
Sequence of human CD33 H143A (P20138 18-364 H143A limits assumed): as the sequence (P20138 18-364 L161A limits assumed) above, with H126A, A144L counted along it
Protocol: as §1, §2

human CD33 C163A = human CD33 C163A (human, UniProt P20138 18-364)
Sequence of human CD33 C163A (P20138 18-364 C163A limits assumed): as the sequence (P20138 18-364 L161A limits assumed) above, with A144L, C146A counted along it
Protocol: as §1, §2

human CD33 S124A = human CD33 S124A (human, UniProt P20138 18-364)
Sequence of human CD33 S124A (P20138 18-364 S124A limits assumed): as the sequence (P20138 18-364 L161A limits assumed) above, with S107A, A144L counted along it
Protocol: as §1, §2

human CD33 G114A = human CD33 G114A (human, UniProt P20138 18-364)
Protocol: as §1, §2

human CD33 H137A = human CD33 H137A (human, UniProt P20138 18-364)
Sequence of human CD33 H137A (P20138 18-364 H137A limits assumed): as the sequence (P20138 18-364 L161A limits assumed) above, with H120A, A144L counted along it
Protocol: as §1, §2

human CD33 T139A = human CD33 T139A (human, UniProt P20138 18-364)
Sequence of human CD33 T139A (P20138 18-364 T139A limits assumed): as the sequence (P20138 18-364 L161A limits assumed) above, with T122A, A144L counted along it
Protocol: as §1, §2

human CD33 P96A = human CD33 P96A (human, UniProt P20138 18-364)
Protocol: as §1, §2

human CD33 D140A = human CD33 D140A (human, UniProt P20138 18-364)
Sequence of human CD33 D140A (P20138 18-364 D140A limits assumed): as the sequence (P20138 18-364 L161A limits assumed) above, with D123A, A144L counted along it
Protocol: as §1, §2

human CD33 P155A = human CD33 P155A (human, UniProt P20138 18-364)
Protocol: as §1, §2

human CD33 R144A = human CD33 R144A (human, UniProt P20138 18-364)
Protocol: as §1, §2

human CD33 L148A = human CD33 L148A (human, UniProt P20138 18-364)
Protocol: as §1, §2

human CD33 L103A = human CD33 L103A (human, UniProt P20138 18-364)
Protocol: as §1, §2

human CD33 L153A = human CD33 L153A (human, UniProt P20138 18-364)
Protocol: as §1, §2

human CD33 A108S = human CD33 A108S (human, UniProt P20138 18-364)
Sequence of human CD33 A108S (P20138 18-364 A108S limits assumed): as the sequence (P20138 18-364 L161A limits assumed) above, with A91S, A144L counted along it
Protocol: as §1, §2

human CD33 S158A = human CD33 S158A (human, UniProt P20138 18-364)
Sequence of human CD33 S158A (P20138 18-364 S158A limits assumed): as the sequence (P20138 18-364 L161A limits assumed) above, with S141A, A144L counted along it
Protocol: as §1, §2

human CD33 S104A = human CD33 S104A (human, UniProt P20138 18-364)
Sequence of human CD33 S104A (P20138 18-364 S104A limits assumed): as the sequence (P20138 18-364 L161A limits assumed) above, with S87A, A144L counted along it
Protocol: as §1, §2

human CD33 T152A = human CD33 T152A (human, UniProt P20138 18-364)
Sequence of human CD33 T152A (P20138 18-364 T152A limits assumed): as the sequence (P20138 18-364 L161A limits assumed) above, with T135A, A144L counted along it
Protocol: as §1, §2

human CD33 M120A = human CD33 M120A (human, UniProt P20138 18-364)
Protocol: as §1, §2

Sequence of human CD33 T125A (P20138 18-364 T125A limits assumed): as the sequence (P20138 18-364 L161A limits assumed) above, with T108A, A144L counted along it
Sequence of human CD33 P132A (P20138 18-364 P132A limits assumed): as the sequence (P20138 18-364 L161A limits assumed) above, with P115A, A144L counted along it

B1: Refmab #3 (antibody, V domains shown)
VH: QVQLVQSGAEVKKPGSSVKVSCKASGYTFTDYNMHWVRQAPGQGLEWIGYIYPYNGGTGYNQKFKSKATITADESTNTAYMELSSLRSEDTAVYYCARGRPAMDYWGQGTLVTVSS
VL: DIQMTQSPSSLSASVGDRVTITCRASESVDNYGISFMNWFQQKPGKAPKLLIYAASNQGSGVPSRFSGSGSGTDFTLTISSLQPDDFATYYCQQSKEVPWTFGQGTKVEIK
notes: The alanine scan used IgG or Fab
- Mean % WT Binding (human CD33 F118A): 8.2 % WT binding
- Mean % WT Binding (human CD33 R111A): 93.4 % WT binding
- Mean % WT Binding (human CD33 P132A): 74.5 % WT binding
- Mean % WT Binding (human CD33 F117A): 166 % WT binding
- Mean % WT Binding (human CD33 N113A): 81.4 % WT binding
- Mean % WT Binding (human CD33 T125A): 932 % WT binding
- Mean % WT Binding (human CD33 L161A): 116 % WT binding
- Mean % WT Binding (human CD33 H157A): 138 % WT binding
- Mean % WT Binding (human CD33 Q133A): 101 % WT binding
- Mean % WT Binding (human CD33 V138A): 129 % WT binding
- Mean % WT Binding (human CD33 L93A): 120 % WT binding
- Mean % WT Binding (human CD33 D95A): 103 % WT binding
- Mean % WT Binding (human CD33 K146A): 118 % WT binding
- Mean % WT Binding (human CD33 S115A): 77.2 % WT binding
- Mean % WT Binding (human CD33 R110A): 99.1 % WT binding
- Mean % WT Binding (human CD33 D112A): 77.5 % WT binding
- Mean % WT Binding (human CD33 T142A): 133 % WT binding
- Mean % WT Binding (human CD33 I105A): 64.7 % WT binding
- Mean % WT Binding (human CD33 H143A): 97.9 % WT binding
- Mean % WT Binding (human CD33 C163A): 65.7 % WT binding
- Mean % WT Binding (human CD33 S124A): 274 % WT binding
- Mean % WT Binding (human CD33 G114A): 92.6 % WT binding
- Mean % WT Binding (human CD33 H137A): 100 % WT binding
- Mean % WT Binding (human CD33 T139A): 143 % WT binding
- Mean % WT Binding (human CD33 P96A): 140 % WT binding
- Mean % WT Binding (human CD33 D140A): 119 % WT binding
- Mean % WT Binding (human CD33 P155A): 114 % WT binding
- Mean % WT Binding (human CD33 R144A): 112 % WT binding
- Mean % WT Binding (human CD33 L148A): 108 % WT binding
- Mean % WT Binding (human CD33 L103A): 113 % WT binding
- Mean % WT Binding (human CD33 L153A): 144 % WT binding
- Mean % WT Binding (human CD33 A108S): 98 % WT binding
- Mean % WT Binding (human CD33 S158A): 111 % WT binding
- Mean % WT Binding (human CD33 S104A): 102 % WT binding
- Mean % WT Binding (human CD33 T152A): 155 % WT binding

B2: Refmab #1 (antibody, V domains shown)
VH: EVQLVQSGAEVKKPGSSVKVSCKASGYTITDSNIHWVRQAPGQSLEWIGYIYPYNGGTDYNQKFKNRATLTVDNPTNTAYMELSSLRSEDTAFYYCVNGNPWLAYWGQGTLVTVSS
VL: DIQLTQSPSTLSASVGDRVTITCRASESLDNYGIRFLTWFQQKPGKAPKLLMYAASNQGSGVPSRFSGSGSGTEFTLTISSLQPDDFATYYCQQTKEVPWSFGQGTKVEVK
notes: The alanine scan used IgG or Fab; also called hP67.6
- Mean % WT Binding (human CD33 F118A): 0.1 % WT binding
- Mean % WT Binding (human CD33 M120A): 79.8 % WT binding
- Mean % WT Binding (human CD33 R111A): 100 % WT binding
- Mean % WT Binding (human CD33 P132A): 107 % WT binding
- Mean % WT Binding (human CD33 F117A): 98.7 % WT binding
- Mean % WT Binding (human CD33 N113A): 96 % WT binding
- Mean % WT Binding (human CD33 T125A): 92.4 % WT binding
- Mean % WT Binding (human CD33 L161A): 87 % WT binding
- Mean % WT Binding (human CD33 H157A): 86.6 % WT binding
- Mean % WT Binding (human CD33 Q133A): 95.6 % WT binding
- Mean % WT Binding (human CD33 V138A): 72.3 % WT binding
- Mean % WT Binding (human CD33 L93A): 88.6 % WT binding
- Mean % WT Binding (human CD33 D95A): 80.5 % WT binding
- Mean % WT Binding (human CD33 K146A): 78.5 % WT binding
- Mean % WT Binding (human CD33 S115A): 86.9 % WT binding
- Mean % WT Binding (human CD33 R110A): 94.9 % WT binding
- Mean % WT Binding (human CD33 D112A): 51.8 % WT binding
- Mean % WT Binding (human CD33 T142A): 85.1 % WT binding
- Mean % WT Binding (human CD33 I105A): 31.5 % WT binding
- Mean % WT Binding (human CD33 H143A): 88.8 % WT binding
- Mean % WT Binding (human CD33 C163A): 84.6 % WT binding
- Mean % WT Binding (human CD33 S124A): 87.5 % WT binding
- Mean % WT Binding (human CD33 G114A): 96.9 % WT binding
- Mean % WT Binding (human CD33 H137A): 83.8 % WT binding
- Mean % WT Binding (human CD33 T139A): 89.9 % WT binding
- Mean % WT Binding (human CD33 P96A): 84.9 % WT binding
- Mean % WT Binding (human CD33 D140A): 88.7 % WT binding
- Mean % WT Binding (human CD33 P155A): 84.4 % WT binding
- Mean % WT Binding (human CD33 R144A): 110 % WT binding
- Mean % WT Binding (human CD33 L148A): 83.1 % WT binding
- Mean % WT Binding (human CD33 L103A): 96.3 % WT binding
- Mean % WT Binding (human CD33 L153A): 75.7 % WT binding
- Mean % WT Binding (human CD33 A108S): 85.3 % WT binding
- Mean % WT Binding (human CD33 S158A): 87.1 % WT binding
- Mean % WT Binding (human CD33 S104A): 89 % WT binding
- Mean % WT Binding (human CD33 T152A): 86.3 % WT binding

B3: Refmab #4 (antibody, V domains shown)
VH: QVQLVQSGAEVKKPGESVKVSCKASGYTFTNYGMNWVKQAPGQGLEWMGWINTYTGEPTYADKFQGRVTMTTDTSTSTAYMEIRNLGGDDTAVYYCARWSWSDGYYVYFDYWGQGTSVTVSS
VL: DIVMTQSPDSLTVSLGERTTINCKSSQSVLDSSTNKNSLAWYQQKPGQPPKLLLSWASTRESGIPDRFSGSGSGTDFTLTIDSPQPEDSATYYCQQSAHFPITFGQGTRLEIK
notes: as for B1
- Mean % WT Binding (human CD33 F118A): 6 % WT binding
- Mean % WT Binding (human CD33 M120A): 96.8 % WT binding
- Mean % WT Binding (human CD33 R111A): 94.3 % WT binding
- Mean % WT Binding (human CD33 P132A): 70.1 % WT binding
- Mean % WT Binding (human CD33 F117A): 142 % WT binding
- Mean % WT Binding (human CD33 N113A): 45.1 % WT binding
- Mean % WT Binding (human CD33 T125A): 218 % WT binding
- Mean % WT Binding (human CD33 L161A): 114 % WT binding
- Mean % WT Binding (human CD33 H157A): 97.4 % WT binding
- Mean % WT Binding (human CD33 Q133A): 96 % WT binding
- Mean % WT Binding (human CD33 L93A): 63.9 % WT binding
- Mean % WT Binding (human CD33 D95A): 90.9 % WT binding
- Mean % WT Binding (human CD33 K146A): 122 % WT binding
- Mean % WT Binding (human CD33 S115A): 36.4 % WT binding
- Mean % WT Binding (human CD33 R110A): 88.4 % WT binding
- Mean % WT Binding (human CD33 D112A): 36 % WT binding
- Mean % WT Binding (human CD33 T142A): 88.8 % WT binding
- Mean % WT Binding (human CD33 I105A): 21.6 % WT binding
- Mean % WT Binding (human CD33 H143A): 106 % WT binding
- Mean % WT Binding (human CD33 C163A): 43.3 % WT binding
- Mean % WT Binding (human CD33 S124A): 58.8 % WT binding
- Mean % WT Binding (human CD33 G114A): 110 % WT binding
- Mean % WT Binding (human CD33 H137A): 108 % WT binding
- Mean % WT Binding (human CD33 T139A): 84.3 % WT binding
- Mean % WT Binding (human CD33 P96A): 27.4 % WT binding
- Mean % WT Binding (human CD33 D140A): 96.1 % WT binding
- Mean % WT Binding (human CD33 P155A): 111 % WT binding
- Mean % WT Binding (human CD33 R144A): 99.7 % WT binding
- Mean % WT Binding (human CD33 L148A): 113 % WT binding
- Mean % WT Binding (human CD33 L103A): 85.9 % WT binding
- Mean % WT Binding (human CD33 L153A): 92.5 % WT binding
- Mean % WT Binding (human CD33 A108S): 86.5 % WT binding
- Mean % WT Binding (human CD33 S158A): 98 % WT binding
- Mean % WT Binding (human CD33 S104A): 86.4 % WT binding
- Mean % WT Binding (human CD33 T152A): 110 % WT binding

— US20260242735A1 (UNIVERSIT T BASEL, published 2026)
